For 32 variants, self-cleavage results are on record in the RNAGym collection of RNA variant scans (doi:10.7554/elife.80360).

Sequences and labels used below:
B1: HDV Ribozyme (parent)
chain: GGCCGGCAUGGUCCCAGCCUCCUCGCUGGCGCCGGCUGGGCAACAUUCCGAGGGGACCGUCCCCUCGGUAAUGGCGAAUGGGACCCA

Variants of B1 are the subject of the data set. The data set can be described thus: self-cleavage, relative activity (ratio to wild type); higher = more cleavage; co-transcriptional.
For GGCCGGCAUGGUUCCAGCCUCCUCGCUGGCACCGGCUGGGCAACAUUCCGAGGGGACCGUCCCCUCGGUAAUGGCGAAUGGGACCCA [C13U G31A], the self-cleavage was found to be 0.131. On to GGCCGGCAUGGUCCCAGCCUCCUCGCUGGCGCCGCCUGGGCAACAUUCCGAGGGCACCGUCCCCUCGGUAAUGGCGAAUGGGACCCA [G35C G55C], for which the self-cleavage was found to be 0.366. GGCCGGCAUGGUCCCAGCCUCCUCGCUGGCUCCGGCUGGGCAACAUUCCGAGGGGACCGUCCCCUCGGUAAAGGCGAAUGGGACCCA [G31U U72A]: the self-cleavage amounted to 0.141. Turning to GGCCGGCAUGGUCCCAGCCUCCUCGCUGGCGCCGGCUGGGAAACAUUCCGAGGGGACCGUCCCCUCGGUAAUGGCGAAUGGGACCCG [C41A A87G], the self-cleavage was determined as 0.883. With GGCCGGCAUGGUCCCAGCCUCCUCGCUGGCGCCGGCUGGGCACCAUUCCGACGGGACCGUCCCCUCGGUAAUGGCGAAUGGGACCCA [A43C G52C], the self-cleavage amounted to 0.386.

For GGCCGGCAUGGUCCCAGACUCCUCGCUGGCGCCGGCUGGGCAACAUUCCGAGGGGACCGUCCCCUCGGUAAUGGCGAAUAGGACCCA [C18A G80A], the self-cleavage was determined as 0.0963. Turning to GGCCGGCAUGGUCCCAGCCUCCUCGCUGACGCCGGCUGGGCAACGUUCCGAGGGGACCGUCCCCUCGGUAAUGGCGAAUGGGACCCA [G29A A45G], the self-cleavage is 0.142. With GGCCGGCAUGGUCCCAGCCUCCUCGCUGGCGCCGGCUGGGCAACAUUCCGAGGGGUCCGUCCCCUCGGUAAUGGCAAAUGGGACCCA [A56U G76A], the self-cleavage was 0.939. Turning to GGGCGGCAUGGUCCCAGCCUCCUCGCUGGCGCCGGCUGGGCAACAUUCCGAGGGGACCGUCCCCUCGGUAAUGGCGAAUGGGACCCC [C3G A87C], the self-cleavage was 0.861. In the case of GGCCGGCAUGGUCCCAGCCUCCUCGCUGGUGCCGGCUGGGCAACAUUCCGAGGGGACCGACCCCUCGGUAAUGGCGAAUGGGACCCA [C30U U60A], the self-cleavage was determined as 0.69.

For the variant GGCCGGCAUGGCCCCAGCCUCCUCGCUGGCGCCGGCUGCGCAACAUUCCGAGGGGACCGUCCCCUCGGUAAUGGCGAAUGGGACCCA [U12C G39C], the self-cleavage was 0. GGCCGGCAUGGUCCCAGCCUCCUCGCUGGCGCCGGCUGGGCAACAUUCUGAGGGGACCGUCCCCUCGGUAAUGGCGAAUGGGACGCA [C49U C85G]: the self-cleavage came to 0.876.

On to GGCCGGCAUGGUCCCAGCCUCCUCGCUGGCGCCGGCUGGGCAACAUUCCGGGGGGACCGUCCCCUCGGUAAUGGCGAAUGGGUCCCA [A51G A83U], for which the self-cleavage was 0.356. Turning to GGCCGGCAUGGUCCCAGCCUCCUCGCUGGCGCCGGCUGGGCAACAUUCCGAGGGGACCGUCCACUCGGUAAUGGCGAAUGGGAGCCA [C63A C84G], the self-cleavage was 0.759. With GGCCGGCAUGGUCCCAACCUCCUCGCUGGCGCCGGCUGGGCAACAUUCCGAGGGGACCGUCCCCUCGGUAAUGGCGAAUGGGACCCA [G17A], the self-cleavage is 0.718. Regarding GGCCGGCAUGGUCCCAGCGACCUCGCUGGCGCCGGCUGGGCAACAUUCCGAGGGGACCGUCCCCUCGGUAAUGGCGAAUGGGACCCA [C19G U20A], the self-cleavage came to 0.0314. Turning to GGCCGGCAUGGUGCCAGCCUCCUCGCUGGCGCCGGCUGGGGAACAUUCCGAGGGGACCGUCCCCUCGGUAAUGGCGAAUGGGACCCA [C13G C41G], the self-cleavage came out at 0. With GGCCGGCAAGGUCCCAGCCUCCUCGCUGGCGCCGGCUGGGCAACAUUCCGAGGGGACCGUCCCCUCGGUAACGGCGAAUGGGACCCA [U9A U72C], the self-cleavage is 0.688. As for GGCCGGCAUGGUCCCAGCCUCCUCGCUGGCGCCGGCUGGGCAACAUUCCGUGGGGACCGUCGCCUCGGUAAUGGCGAAUGGGACCCA [A51U C62G], the self-cleavage was 0.131. As to GGCCCGCAUGGUCCCAGCCUCUUCGCUGGCGCCGGCUGGGCAACAUUCCGAGGGGACCGUCCCCUCGGUAAUGGCGAAUGGGACCCA [G5C C22U], the self-cleavage was determined as 0.151. Consider GGCCGGCAUGGUCGCAGCCCCCUCGCUGGCGCCGGCUGGGCAACAUUCCGAGGGGACCGUCCCCUCGGUAAUGGCGAAUGGGACCCA [C14G U20C], for which the self-cleavage was 0.0554. For GGCAGGCAUGGUCCUAGCCUCCUCGCUGGCGCCGGCUGGGCAACAUUCCGAGGGGACCGUCCCCUCGGUAAUGGCGAAUGGGACCCA [C4A C15U] the value was 0.0378; for GGCCGGCAUGGUCCCAGCCUCCUCGCUGGCGCCGGCUGGGCAACAUUCCGAGGGGACCGUCCCCUCGGUUAUGGCGAAUAGGACCCA [A70U G80A], 0.445. Regarding GGCCGGCAUGGACCCAGCCUCCUCGCUGGCGCCGGCUGGGCAACAUUCCGAGGGGACCGUCCCCUCGGUAAUGGCGAGUGGGACCCA [U12A A78G], the self-cleavage was determined as 0.237. On to GGCCGGCAUGGUCCCAGCCUCCUCGCAGGCGCCGGCUGGGCAACAUUCCGAGGGGACCGUCCCCUCGGUAAUGGCGCAUGGGACCCA [U27A A77C], for which the self-cleavage was 0.

With GGCCGGCAUGGUCCCAGCCUCCUCGCUGACGCCGGCUGGGCAACAUUCCGAGGGGACCGUCCCCUCCGUAAUGGCGAAUGGGACCCA [G29A G67C], the self-cleavage is 0.237. The same measure for GGCCGGCAUGCUCCCAGCCUCCUCGCUGGCGCCGGCUGGGCAACAUUCCGAGGGGACCGUCCCCGCGGUAAUGGCGAAUGGGACCCA [G11C U65G]: 0; for GGCCGGCAUGGUCCCAGCCUCCUCGCUGGCGCCGGCUGAGCAACAUUCCGAGGGGACCGUCCCCUCGGUAAUGGCGAAUGGGACCCA [G39A]: 0.51. Turning to GGCCGGCAUGGUCCCAGCCUCCUCGCUGGCGCCGGCUGGGCAACAUUCCGAUGGGACCGUCCCCUCGGUAAUGGCGAAUGGAACCCA [G52U G82A], the self-cleavage is 0.277. For GGCCGGCAUGGUCCCAGCCUCCUCGCUGGCGCCGGCUGGGCAACAUUCCUAGGGGACCGUCCCCUCGGUAAUGGGGAAUGGGACCCA [G50U C75G], the self-cleavage was 0.277. Consider GGCCGGCAUGGUCCCAGCCUCCUCGCUGGCGCGGGCUGGGCAACAUUCCGAGGGGACCGUCCCCUCGGUAAUGGCGAAUGGGACUCA [C33G C85U], for which the self-cleavage amounted to 0.122. On to GGCCGGCAUGGUCCCAGCCUCCUCGCUGGCGCCGGCUGGGCAACAAUCCGAGGGGACCGUCCCCUCGGUAAUGGCGAUUGGGACCCA [U46A A78U], for which the self-cleavage turned out to be 0.156.
